In the supplement of paper PMC10567573:

B1: RAD54B (parent)
chain: YVQEKRDGLKRRQQLEEELLRAKI

Variants of: B1
Experiment: protein stability index of a GFP-peptide fusion (GPS, HEK-293T) (PSI 1-6); higher = more stable
Settings: c terminus: a fixed tail appended
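Note: lentivirally expressed fusions sorted by FACS into six bins by GFP to DsRed ratio, PSI derived from sequencing read proportions per bin multiplied by bin number.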

Variant	protein stability index
L20E	2.25
L20A	1.95
L20T	1.82
L20Q	1.75
L20R	2.18
L20S	1.67
L20Y	2.26
L20M	1.78
L20H	1.81
R21L	1.84
R21G	2.09
R21A	1.66
R21T	2.26
R21P	2.32
R21V	1.94
R21W	1.93
R21Y	1.75
R21E	2.17
R21Q	1.89
R21S	2.97
R21M	1.96
R21K	2.19
R21D	2.1
R21H	1.57

Variant	protein stability index
R21F	1.93
R21C	1.87
R21N	1.8
R21I	2.16
K5T	1.74
K5R	1.86
K5Y	2.4
K5W	2.11
K5V	2.1
K5S	2.56
R11S	2.36
R11G	2
R11E	3.22
R11L	2.23
R11A	2.82
R11W	2.46
R11Q	2.32
R11P	2.25
R11H	2.93
R11K	2.44
R11V	2.13
R11T	2.46
R11D	2.62
R11F	1.69

Variant	protein stability index
R11C	1.81
R11N	2.67
R11M	2.07
R11Y	1.97
R11I	2.86
G8K	2.33
G8Y	2.12
G8W	3.6
G8I	1.99
G8V	2.11
G8S	1.99
G8D	2.27
G8H	1.92
G8L	2.45
G8T	1.74
G8M	2.29
G8N	1.49
G8C	1.98
G8P	2.12
G8E	2.59
G8Q	2.01
G8A	1.82
G8R	2.28
G8F	2.27

Variant	protein stability index
E16M	1.74
E16H	1.74
E16R	1.53
E16Q	1.8
E16F	2.74
E16L	2.17
E16A	1.98
E16S	1.39
E16Y	1.73
E16P	1.56
E16G	2.41
E16N	2.07
E16I	1.51
E16C	2.09
E16V	2.24
E16D	1.77
E16K	1.67
E16W	1.73
E16T	1.83
L9Q	2.26
L9Y	1.91
L9A	2.21
L9S	1.99
L9T	1.83

Variant	protein stability index
L9V	1.82
L9F	2.02
L9C	2.06
L9D	2.92
L9P	2.36
L9K	1.98
L9E	2.85
L9I	2.25
L9H	2.1
L9R	1.79
L9W	1.81
L9G	2.14
L9N	2.35
L9M	2.02
E18D	1.86
E18L	1.55
E18Y	2.22
E18W	2.42
E18M	2.01
E18F	2.06
E18V	1.94
E18A	2.02
E18K	1.95
E18H	2.29

Variant	protein stability index
E18N	1.96
E18G	2.53
E18P	2
E18S	2.13
E18Q	2.03
E18I	1.67
E18R	1.88
E18T	1.48
E18C	1.73
D7P	1.88
D7I	2.13
D7R	2.37
D7C	3.13
D7E	1.96
D7Q	2.21
D7H	1.67
D7S	2.37
D7N	1.81
D7W	2.14
D7F	1.54
D7G	1.88
D7K	2.16
D7T	3.69
D7L	1.46

Variant	protein stability index
D7M	1.79
D7A	1.87
D7V	1.47
D7Y	1.39
Q14W	2.12
Q14V	2.01
Q14Y	2.25
Q14H	1.94
Q14T	1.75
Q14C	1.77
Q14D	2.2
Q14A	1.93
Q14M	1.75
Q14E	2
Q14G	2.33
Q14R	2.09
Q14P	1.99
Q14I	1.76
Q14L	1.86
Q14F	2.12
Q14K	2.35
Q14N	1.65
Q14S	1.67
